This note sets out measurements from the supplement of paper PMC9233669.

One series concerns biotinyl-Leu-oxazolone. The series can be described thus: self-aminoacylation, catalytic enhancement (BLO) (fold over background); higher = more active; k-Seq, kA / k0A0; sequences stand for … in GGGAAUGGAUCCACAUCUACGAAUUC…UUCACUGCAGACUUGACGAAGCUG
The essentials:
(§1)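 Working in 50 μL HEPES/NaCl/KCl/MgCl2/CaCl2 buffer with 5% acetonitrile at pH 6.9–7.0, mutagenized RNA pools (0.43 μM; 21-nt variable region) were reacted with 2–1250 μM of each biotinyl-aminoacyl-oxazolone for 90 minutes at room temperature. Streptavidin capture followed, with quantification by triplicate qPCR and Illumina sequencing. Catalytic enhancement is reported as median kA over the uncatalyzed rate, the low-activity peak of a bimodal Gaussian fit to the data.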

The subject of a further series is biotinyl-Met-oxazolone. The series is described as follows: self-aminoacylation, catalytic enhancement (BMO) (fold over background); higher = more active; k-Seq, kA / k0A0; sequences stand for … in GGGAAUGGAUCCACAUCUACGAAUUC…UUCACUGCAGACUUGACGAAGCUG
The gist of the method:
as §1

In the next series the test system is biotinyl-Trp-oxazolone. The series can be described thus: self-aminoacylation, catalytic enhancement (BWO) (fold over background); higher = more active; k-Seq, kA / k0A0; sequences stand for … in GGGAAUGGAUCCACAUCUACGAAUUC…UUCACUGCAGACUUGACGAAGCUG
The gist of the method:
as §1

Another series relates to biotinyl-Ile-oxazolone. The series can be described thus: self-aminoacylation, catalytic enhancement (BIO) (fold over background); higher = more active; k-Seq, kA / k0A0; sequences stand for … in GGGAAUGGAUCCACAUCUACGAAUUC…UUCACUGCAGACUUGACGAAGCUG
The gist of the method:
as §1

In the next series the test system is biotinyl-Val-oxazolone. The series is described as follows: self-aminoacylation, catalytic enhancement (BVO) (fold over background); higher = more active; k-Seq, kA / k0A0; sequences stand for … in GGGAAUGGAUCCACAUCUACGAAUUC…UUCACUGCAGACUUGACGAAGCUG
The gist of the method: as §1

In a further series the test system is biotinyl-Phe-oxazolone. The series can be described thus: self-aminoacylation, catalytic enhancement (BFO) (fold over background); higher = more active; k-Seq, kA / k0A0; sequences stand for … in GGGAAUGGAUCCACAUCUACGAAUUC…UUCACUGCAGACUUGACGAAGCUG
The gist of the method:
as §1

Variants at the floor of the assay were thinned out.

In the case of “AUUCCCCUAGGUCAUCGCGUG [Fam2.2 aminoacylation ribozyme variant]”, the self-aminoacylation with biotinyl-Leu-oxazolone came to 141; in the series on biotinyl-Met-oxazolone it was 102; in the series with biotinyl-Trp-oxazolone, 99.5; in the series on biotinyl-Ile-oxazolone it was 64.1; with biotinyl-Val-oxazolone, 77.6; with biotinyl-Phe-oxazolone it was 826.
For the sequence “AUUCCCCUAGGUCAUCGGGUG [Fam2.2 aminoacylation ribozyme variant]”, the self-aminoacylation stood at 32.9 with biotinyl-Leu-oxazolone; 24.4 in the series with biotinyl-Met-oxazolone; 23.2 with biotinyl-Trp-oxazolone; 14.9 in the series with biotinyl-Ile-oxazolone; 14.9 in the series with biotinyl-Val-oxazolone; 196 in the series with biotinyl-Phe-oxazolone.
As to “AUUCCCCUAGGUCAUUGGGUG [Fam2.2 aminoacylation ribozyme variant]”, the self-aminoacylation in the series on biotinyl-Leu-oxazolone was 15.6; in the series on biotinyl-Met-oxazolone it was 10.3; with biotinyl-Trp-oxazolone, 11.8; with biotinyl-Ile-oxazolone it was 7.23; in the series on biotinyl-Val-oxazolone it was 7.95; with biotinyl-Phe-oxazolone, 92.5.
As to “AUUCCCCUAGGUCGUCGGGUG [Fam2.2 aminoacylation ribozyme variant]”, the self-aminoacylation in the series on biotinyl-Leu-oxazolone worked out at 9.19; in the series with biotinyl-Met-oxazolone, 7.13; with biotinyl-Trp-oxazolone it was 7.42; with biotinyl-Ile-oxazolone, 5.97; in the series with biotinyl-Val-oxazolone, 5.97; in the series with biotinyl-Phe-oxazolone, 31.9.
Turning to “AUUCCCCUAUGUCAUCGGGUG [Fam2.2 aminoacylation ribozyme variant]”, the self-aminoacylation in the series on biotinyl-Leu-oxazolone was determined as 23.5; in the series with biotinyl-Met-oxazolone, 19.2; in the series on biotinyl-Trp-oxazolone, 18.4; in the series with biotinyl-Ile-oxazolone, 12.2; with biotinyl-Val-oxazolone it was 10.9; with biotinyl-Phe-oxazolone it was 154.
In the case of “AUUCCCCUGGUCAUCGAGUGC [Fam2.1 aminoacylation ribozyme variant]”, the self-aminoacylation with biotinyl-Leu-oxazolone turned out to be 1.63; with biotinyl-Met-oxazolone, 1.35; in the series on biotinyl-Trp-oxazolone it was 2.07; with biotinyl-Ile-oxazolone it was 1.36; with biotinyl-Val-oxazolone, 1.64; in the series with biotinyl-Phe-oxazolone, 1.33.
On to “AUUCCCCUGGUCAUCGAGUGU [Fam2.1 aminoacylation ribozyme variant]”, for which the self-aminoacylation was 3.28 with biotinyl-Leu-oxazolone; 3.09 in the series on biotinyl-Met-oxazolone; 3.8 in the series on biotinyl-Trp-oxazolone; 2.39 with biotinyl-Ile-oxazolone; 2.61 with biotinyl-Val-oxazolone; 15.2 in the series with biotinyl-Phe-oxazolone.
On to “AUUCCCCUGGUCAUCGCGUGA [Fam2.1 aminoacylation ribozyme variant]”, for which the self-aminoacylation with biotinyl-Leu-oxazolone worked out at 28.2; in the series on biotinyl-Met-oxazolone it was 22.1; in the series on biotinyl-Trp-oxazolone, 26.8; in the series with biotinyl-Ile-oxazolone, 12.2; in the series with biotinyl-Val-oxazolone, 15; with biotinyl-Phe-oxazolone, 213.
With “AUUCCCCUGGUCAUCGGGUGA [Fam2.1 aminoacylation ribozyme variant]”, the self-aminoacylation was determined as 14.4 in the series with biotinyl-Leu-oxazolone; 14.1 in the series on biotinyl-Met-oxazolone; 15.6 with biotinyl-Trp-oxazolone; 7.79 in the series on biotinyl-Ile-oxazolone; 8.68 in the series with biotinyl-Val-oxazolone; 106 with biotinyl-Phe-oxazolone.
Consider “AUUCCCCUGGUCGUCGAGUGA [Fam2.1 aminoacylation ribozyme variant]”, for which the self-aminoacylation is 1.71 in the series with biotinyl-Leu-oxazolone; 1.42 with biotinyl-Met-oxazolone; 1.52 in the series on biotinyl-Trp-oxazolone; 1.48 in the series on biotinyl-Ile-oxazolone; 1.33 in the series on biotinyl-Val-oxazolone; 6.18 with biotinyl-Phe-oxazolone.
For the sequence “AUUCCCCUGGUCUUCGAGUGA [Fam2.1 aminoacylation ribozyme variant]”, the self-aminoacylation with biotinyl-Leu-oxazolone amounted to 9.91; in the series with biotinyl-Met-oxazolone, 9.43; in the series on biotinyl-Trp-oxazolone it was 11.8; with biotinyl-Ile-oxazolone it was 5.69; in the series with biotinyl-Val-oxazolone, 5.87; in the series on biotinyl-Phe-oxazolone it was 64.6.
For the sequence “AUUCCCCUGGUGAUCGAGUGA [Fam2.1 aminoacylation ribozyme variant]”, the self-aminoacylation is 5.91 in the series on biotinyl-Leu-oxazolone; 5.51 with biotinyl-Met-oxazolone; 6.06 in the series on biotinyl-Trp-oxazolone; 3.12 in the series on biotinyl-Ile-oxazolone; 3.13 with biotinyl-Val-oxazolone; 36.9 with biotinyl-Phe-oxazolone.
Take “AUUCGCCUAAGUCAUCGGGUG [Fam2.2 aminoacylation ribozyme variant]”: the self-aminoacylation in the series with biotinyl-Leu-oxazolone was determined as 15.6; in the series on biotinyl-Met-oxazolone, 12.9; in the series with biotinyl-Trp-oxazolone, 11.7; in the series with biotinyl-Ile-oxazolone, 7.83; with biotinyl-Val-oxazolone, 7.95; with biotinyl-Phe-oxazolone, 117.
Take “AUUCGCCUAGGCCAUCGGGUG [Fam2.2 aminoacylation ribozyme variant]”: the self-aminoacylation was 5.27 in the series with biotinyl-Leu-oxazolone; 4.46 with biotinyl-Met-oxazolone; 4.7 in the series on biotinyl-Trp-oxazolone; 3.15 in the series with biotinyl-Ile-oxazolone; 4.16 with biotinyl-Val-oxazolone; 35.5 with biotinyl-Phe-oxazolone.
Take “AUUCGCCUAGGGCAUCGGGUG [Fam2.2 aminoacylation ribozyme variant]”: the self-aminoacylation came out at 5.64 in the series with biotinyl-Leu-oxazolone; 5.3 in the series on biotinyl-Met-oxazolone; 4.92 in the series with biotinyl-Trp-oxazolone; 3.24 in the series with biotinyl-Ile-oxazolone; 3.45 in the series with biotinyl-Val-oxazolone; 26.1 in the series on biotinyl-Phe-oxazolone.
Turning to “AUUCGCCUAGGUCAACGGGUG [Fam2.2 aminoacylation ribozyme variant]”, the self-aminoacylation came out at 6.03 with biotinyl-Leu-oxazolone; 4.66 in the series with biotinyl-Met-oxazolone; 3.75 with biotinyl-Trp-oxazolone; 2.76 with biotinyl-Ile-oxazolone; 2.72 in the series on biotinyl-Val-oxazolone; 27.8 with biotinyl-Phe-oxazolone.
Take “AUUCGCCUAGGUCAGCGGGUG [Fam2.2 aminoacylation ribozyme variant]”: the self-aminoacylation in the series on biotinyl-Leu-oxazolone turned out to be 5.95; in the series on biotinyl-Met-oxazolone it was 5.21; with biotinyl-Trp-oxazolone it was 5.11; in the series on biotinyl-Ile-oxazolone, 3.91; in the series with biotinyl-Val-oxazolone, 3.96; with biotinyl-Phe-oxazolone it was 37.8.
“AUUCGCCUAGGUCAUCGCGUG [Fam2.2 aminoacylation ribozyme variant]”: the self-aminoacylation turned out to be 23.4 in the series on biotinyl-Leu-oxazolone; 19.2 with biotinyl-Met-oxazolone; 17.6 in the series with biotinyl-Trp-oxazolone; 10 in the series with biotinyl-Ile-oxazolone; 10.9 with biotinyl-Val-oxazolone; 126 in the series with biotinyl-Phe-oxazolone.
On to “AUUCGCCUAGGUCAUCGGCUG [Fam2.2 aminoacylation ribozyme variant]”, for which the self-aminoacylation turned out to be 2.16 in the series on biotinyl-Leu-oxazolone; 1.95 in the series on biotinyl-Met-oxazolone; 2.11 in the series with biotinyl-Trp-oxazolone; 2.08 in the series with biotinyl-Ile-oxazolone; 2.16 in the series with biotinyl-Val-oxazolone; 6.51 with biotinyl-Phe-oxazolone.
On to “AUUCGCCUAGGUCAUCGGGUU [Fam2.2 aminoacylation ribozyme variant]”, for which the self-aminoacylation was 20.5 in the series on biotinyl-Leu-oxazolone; 14.1 with biotinyl-Met-oxazolone; 10.8 in the series with biotinyl-Trp-oxazolone; 8.6 in the series with biotinyl-Ile-oxazolone; 7.13 with biotinyl-Val-oxazolone; 75.6 in the series on biotinyl-Phe-oxazolone.
Turning to “AUUCGCCUAGGUCGUCGGGUG [Fam2.2 aminoacylation ribozyme variant]”, the self-aminoacylation in the series with biotinyl-Leu-oxazolone amounted to 2.18; with biotinyl-Met-oxazolone, 2.28; in the series on biotinyl-Trp-oxazolone, 1.51; in the series with biotinyl-Ile-oxazolone it was 1.56; with biotinyl-Val-oxazolone, 2.22; with biotinyl-Phe-oxazolone, 11.6.
As for “AUUCGCCUAGUUCAUCGGGUG [Fam2.2 aminoacylation ribozyme variant]”, the self-aminoacylation was 3.82 with biotinyl-Leu-oxazolone; 2.85 with biotinyl-Met-oxazolone; 3.62 with biotinyl-Trp-oxazolone; 2.26 in the series on biotinyl-Ile-oxazolone; 2.8 in the series on biotinyl-Val-oxazolone; 16.2 with biotinyl-Phe-oxazolone.
As to “AUUCGCCUUGGUCAUCGGGUG [Fam2.2 aminoacylation ribozyme variant]”, the self-aminoacylation in the series with biotinyl-Leu-oxazolone is 9.99; in the series on biotinyl-Met-oxazolone, 8.81; with biotinyl-Trp-oxazolone it was 8.13; in the series with biotinyl-Ile-oxazolone, 5; in the series on biotinyl-Val-oxazolone, 6.21; in the series with biotinyl-Phe-oxazolone it was 74.5.
“AUUCGCGUAGGUCAUCGGGUG [Fam2.2 aminoacylation ribozyme variant]”: the self-aminoacylation with biotinyl-Leu-oxazolone came out at 8.56; in the series on biotinyl-Met-oxazolone it was 8.32; in the series on biotinyl-Trp-oxazolone, 7.24; in the series on biotinyl-Ile-oxazolone, 5.25; in the series with biotinyl-Val-oxazolone it was 4.87; with biotinyl-Phe-oxazolone, 57.5.
With “AUUCGUCUAGGUCAUCGGGUG [Fam2.2 aminoacylation ribozyme variant]”, the self-aminoacylation turned out to be 5.27 with biotinyl-Leu-oxazolone; 4.96 with biotinyl-Met-oxazolone; 6.11 in the series with biotinyl-Trp-oxazolone; 4.9 in the series on biotinyl-Ile-oxazolone; 4.85 with biotinyl-Val-oxazolone; 43.2 in the series on biotinyl-Phe-oxazolone.
